In the RNAGym collection of RNA variant scans (doi:10.7554/elife.80360):

B1: Hammerhead Ribozyme (parent)
chain: ACCGGAUGUGCUUUCCGGUCUGAUGAGUCCGUGAGGACGAAACAG

Variants of: B1
Assay: self-cleavage, relative activity (ratio to wild type); higher = more cleavage; co-transcriptional

Variant	self-cleavage
G25C A34U	0.327
G18A C43A	0.299
U32C G39A	0.317
A23G A40U	0.326
G5U U14G	1.29
C11A U13C	1.01
U21G G31A	0.797
C3A G10A	0.897
G10C G33A	1.14
C3A G31A	0.912
G8U G36U	0.495
U12C U21A	0.471
A1G U7A	1.31
A23C U28A	0.262
G8U C11U	1.37
A6C G39A	0.311
G33U C43A	0.466
G35U G36A	0.525
U12A G45U	0.67
G18U G27A	0.567
A23G G45U	0.297
C11U C20U	0.544
C11G C30A	1.26
U32A A42C	0.315

Variant	self-cleavage
U21C A41C	0.329
C20A G27A	0.333
G31U G33A	0.708
C16A U32C	1.09
C16A U32G	0.899
U9C G39A	0.313
A26G G36C	0.307
C3A G36U	0.283
G33U A34G	0.752
A40U A41G	0.27
U9C A41U	0.34
C3A G35U	0.369
U14C A41C	0.301
C2U G17U	0.409
A6G G33C	0.597
G8A G25C	0.276
U24C G31U	0.982
G18U U21A	0.381
A42G A44C	0.484
A40U C43A	0.344
A34C C43G	0.327
U19C C29A	0.374
U9G A40U	0.304
U14C U32C	0.61

Variant	self-cleavage
G10U A23G	0.388
G10A G27U	0.431
C2A U21C	0.402
C15U G33A	0.875
U12A C30U	1.07
G18A G45A	0.354
A23U G36U	0.314
G31C G45U	0.757
U9A G36A	0.621
G5U C16G	0.883
A23G A37C	0.3
U24C G33U	0.854
A1G A37U	1.02
A26C G27U	0.397
C3U G5U	1.4
G8C G27C	0.63
G4A G33U	0.597
C29U A44U	0.542
A23G C38U	0.394
U9G A26G	0.345
G36A G39C	0.306
G4A U24C	0.59
C20U A26C	0.321
A1G G25U	0.353

Variant	self-cleavage
U7A G36U	0.585
U7C A37C	0.828
G8U U12A	0.842
A1U C20G	0.412
G18A G25U	0.348
C11G U14G	0.74
U9G A34U	0.631
C11G G17A	0.511
C20U A37C	0.549
G4U A23U	0.333
G8C U9A	0.907
U24C A42C	0.316
C3G C43A	0.318
U13C U28G	0.935
A6U U21G	0.449
U7G G39C	0.293
C30A G36U	0.639
U24G G39A	0.327
G33A A44C	0.673
A26C C43U	0.343
U19A G36A	0.369
C15A G22A	0.34
C11A U14A	0.829
G5U U12C	0.804

Variant	self-cleavage
C2A U14A	0.509
G4A C38G	0.344
A1G A44U	0.968
A1G C29G	1.02
G5A U7G	1.56
A34G A37C	0.649
A1G U24C	1.6
G35U A42G	0.253
G8A G33A	0.9
C2G A6U	0.321
G22U	0.362
G22A	0.356
G31A G45U	0.805
A1C A34G	0.385
C11U A34U	0.724
G10U G36A	0.65
U14G U24G	0.575
U7G G36U	0.735
G17C U32A	0.497
A23C C43G	0.274
A1U A26G	0.34
U24A A37C	1.03
G5C G22C	0.243
A1U G25U	0.435

Variant	self-cleavage
A1U G25A	0.32
G17C A37U	0.359
C11A G31A	1.21
U7C C16G	0.487
C20A G35A	0.446
U12A A40C	0.556
G4A A37G	0.391
A6U G8A	0.807
A6U U19C	0.47
C20G G27C	0.252
C15A A26G	0.248
U7A A37G	0.907
U7A A37C	1.12
G8C C16U	1.32
G10U U14C	0.952
G35U	0.817
G22A A34C	0.286
A37U A41G	0.406
A1G G22A	0.384
A37U C38A	0.693
U13A U14A	1.15
C15G A40G	0.42
G22U U28C	0.312
G25C U28G	0.311

Variant	self-cleavage
C11U U28C	0.954
G22U A42C	0.359
C3U G31A	1.06
U32G G45U	0.587
G4U G39A	0.263
A41G C43A	0.317
A6C G17U	0.37
G8C A41C	0.312
C3A C29U	0.534
G4U U28G	0.308
U9C G36A	0.511
G5A A34U	1.06
A23C U24G	0.464
U12A U24G	1.23
U12A G18C	0.565
G8C U19A	0.295
C29G	0.766
U13G G17U	0.78
C3G C29G	0.345
G4A U28C	0.306
G22A A41U	0.318
G10U G31C	0.998
C2U C15U	0.76
